Data on 3 molecules can be found in PMC9769727, “Glucose-6-Phosphate Dehydrogenase, ZwfA, a Dual Cofactor-Specific Isozyme Is Predominantly Involved in the Glucose Metabolism of Pseudomonas bharatica CSV86^T” (Microbiology Spectrum, 2022).

Data set [1] concerns the target Glucose-6-phosphate dehydrogenase ZwfC from Pseudomonas bharatica CSV86T (Pseudomonas bharatica CSV86T). As to the kind of experiment: SEC; Superdex 200 Increase 10/300 GL column (CV 24 mL, GE Healthcare) in Buffer A (Tris-Cl 50 mM, pH 7.5), 4°C; native molecular weight from a semilog plot of Ve/V0 against standard proteins, compared with the subunit weight by SDS-PAGE.

Data set [2] has as its target Glucose-6-phosphate dehydrogenase ZwfA from Pseudomonas bharatica CSV86T (Pseudomonas bharatica CSV86T). As to the kind of experiment: SEC; ENrich SEC 650 column (CV 24 mL, Bio-Rad) in Buffer A (Tris-Cl 50 mM, pH 7.5), 4°C; native molecular weight from a semilog plot of Ve/V0 against standard proteins, compared with the subunit weight by SDS-PAGE. For orientation: In gel filtration, larger molecules generally elute earlier.

Substrate in data set [3]: NC(=O)c1ccc[n+]([C@@H]2O[C@H](COP(=O)(O)OP(=O)(O)OC[C@H]3O[C@@H](n4cnc5c(N)ncnc54)[C@H](O)[C@@H]3O)[C@@H](O)[C@H]2O)c1
Kind of data set: purified protein. The data set is classed as biochemical, Pseudomonas bharatica. The settings on record: 5 mM G6P fixed, Tris-Cl 50 mM, pH 8.25, hyperbolic.

Substrate in data set [4]: NC(=O)c1ccc[n+]([C@@H]2O[C@H](COP(=O)(O)OP(=O)(O)OC[C@H]3O[C@@H](n4cnc5c(N)ncnc54)[C@H](OP(=O)(O)O)[C@@H]3O)[C@@H](O)[C@H]2O)c1
As to the kind of experiment: purified protein. The data set is classed as biochemical, Pseudomonas bharatica. The settings on record: 5 mM G6P fixed, Tris-Cl 50 mM, pH 8.25, hyperbolic.

On to “Glucose-6-phosphate dehydrogenase ZwfC from Pseudomonas bharatica CSV86T (enzyme)”, for which the stoichiometry N (commonly the number of molecules, sites or subunits per partner or assembly) in data set [1] was 4.
In data set [2], “Glucose-6-phosphate dehydrogenase ZwfA from Pseudomonas bharatica CSV86T (enzyme)” returned a stoichiometry N of 4.

B1: ZwfA (Pseudomonas bharatica CSV86) (protein)
chain: MSSISVEPCTFALFGALGDLALRKLFPALYQLDRAGLLHERTRLLALAREPGSVQEHLASIEAHLHEFVASDTLDTTVLQRFLGRLNYLHMDFLDAQAYPALAAQVTPEAPLIAYFATPAAVYGGICENLAKVGLAERTRVVLEKPIGHDLESSRRVNDAVAQFFPENRIYRIDHYLGKETVQNLIALRFANSLFETQWNQTSISHVEISVAEKVGIEGRWGYFDKAGQLRDMIQNHLLQLLCLIAMDPPSDLSADSIRDEKVKVLKALAPITGEGLGTRVVRGQYIAGHSDGRALPGYLDEENANTHSDTETFVALRADIRNWRWAGVPFYLRTGKRMPQKLSQIVIHFKEPQHYIFAAEQRLQIGNKLIIRLQPDEGISLRVMTKEQGLDKGMQLRSSPLQLNFSDGSFRSARIPDAYERLLLEVMRGNQNLFVRKDEIEYAWKWCDQLIAGWKQSGEAPRPYAAGTWGPVAAVALITRDGRSWYGDI
notes: full length, 490 aa (1473 nt), pET28a N-terminal 6xHis tag, E. coli BL21(DE3), Ni-NTA; subunit ~56 kDa, homotetramer ~217 kDa; part of zwfA-pgl-eda operon; Arg49, Leu17
B1: in “purified protein [3]”, the Km (commonly the concentration of substrate that gives half-maximal velocity) amounted to 366 ± 70 µM; the Vmax (usually the rate approached at saturating substrate) was found to be 329 ± 74 µmol/min/mg; the kcat – broadly, the maximal rate divided by the concentration of active sites – was determined as 306 ± 69 s⁻¹; the kcat/Km (commonly the turnover number divided by the Michaelis constant) came out at 860000 ± 150000 M⁻¹ s⁻¹. For the same molecule, in “purified protein [4]”, the Km turned out to be 110.5 ± 20 µM, the Vmax was 201 ± 28 µmol/min/mg, the kcat worked out at 187 ± 26 s⁻¹ and the kcat/Km amounted to 1.7e+06 ± 300000 M⁻¹ s⁻¹.
